Assay [1] addresses T1, human CD36 (on HEK 293 or SCC25 cells) (human, UniProt P16671 2-472).
T1 construct: Overexpressed transiently or stably on HEK 293 cells, or stably on SCC25 cells; also called huCD36
The assay is described as follows: FACS, HEK 293 cells transiently overexpressing CD36. (In flow cytometry, cells or beads pass a laser one at a time.)
Description: (§1) After transiently transfecting the HEK 293 cells with a CD36 expression construct, cells were treated with three-fold serial dilution of each candidate antibody (10 dilutions starting at 500 nM). […] After incubation with the cells, an anti-human fluorescently labelled antibody was added to the cell media, allowed to incubate further, and the unbound antibody was washed off of the cells. Subsequently, the cells were subjected to FACS analysis to determine antibody binding to the cells. The results were fitted to a sigmoidal titration curve. Using a nonlinear regression model, the EC₅₀ values for each antibody were calculated from the GeoMFI and MFI values using the log(agonist) versus response (four parameters) fitting on the data transformed according to X=Log[X] in GraphPad PRISM.

The target of assay [2] is T2, mouse CD36 (on HEK 293 cells) (mouse, UniProt Q08857 1-472).
T2 construct: also called Murine CD36
The description is as above.
Description: as §1

The target of assay [3] is T3, nonhuman primate CD36 (on HEK 293 cells) (cynomolgus monkey / rhesus macaque, UniProt P16671 2-472 (human entry)).
T3 construct: also called non-human primate CD36 (cynomolgus)
T3 sequence (P16671 other isoform, or with tags, fused parts or gaps limits assumed): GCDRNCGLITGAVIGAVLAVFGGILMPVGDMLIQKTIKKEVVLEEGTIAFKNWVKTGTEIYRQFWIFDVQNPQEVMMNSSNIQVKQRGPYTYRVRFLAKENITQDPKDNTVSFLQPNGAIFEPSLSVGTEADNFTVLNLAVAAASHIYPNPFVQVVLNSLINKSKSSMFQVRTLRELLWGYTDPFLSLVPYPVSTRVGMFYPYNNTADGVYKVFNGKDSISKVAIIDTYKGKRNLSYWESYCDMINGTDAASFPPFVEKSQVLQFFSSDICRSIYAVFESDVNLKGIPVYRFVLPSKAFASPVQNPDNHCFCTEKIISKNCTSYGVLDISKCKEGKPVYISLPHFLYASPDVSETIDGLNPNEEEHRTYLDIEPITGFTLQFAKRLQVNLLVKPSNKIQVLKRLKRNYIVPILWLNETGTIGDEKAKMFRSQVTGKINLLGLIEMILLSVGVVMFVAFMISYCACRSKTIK
The description is as above.
Description: as §1

The target of assay [4] is T1, human CD36 (on HEK 293 or SCC25 cells). The assay is described as follows: cell-based or functional assay.
The target in assay [5] is T4, purified biotin-tagged human CD36 (human, UniProt P16671 30-439, limits assumed, biotin tag, site not stated). The assay is described as follows: AlphaScreen competition; competitor 11G04 on acceptor beads. On the technique in general: Alpha assays give light when donor and acceptor beads are brought close together.
T4 sequence (P16671 30-439 limits assumed): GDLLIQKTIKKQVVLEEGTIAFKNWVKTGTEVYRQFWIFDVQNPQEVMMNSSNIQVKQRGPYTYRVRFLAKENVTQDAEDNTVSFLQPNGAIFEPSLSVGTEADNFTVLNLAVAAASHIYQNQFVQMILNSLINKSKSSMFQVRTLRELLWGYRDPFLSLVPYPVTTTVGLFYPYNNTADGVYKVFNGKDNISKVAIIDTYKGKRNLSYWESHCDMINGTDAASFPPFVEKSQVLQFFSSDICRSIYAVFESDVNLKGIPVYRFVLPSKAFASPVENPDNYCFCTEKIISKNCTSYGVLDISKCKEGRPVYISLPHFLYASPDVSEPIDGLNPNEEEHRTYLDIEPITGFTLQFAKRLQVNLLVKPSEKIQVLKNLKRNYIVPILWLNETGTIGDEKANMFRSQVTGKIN
Assay [6] concerns the target T1, human CD36 (on HEK 293 or SCC25 cells). Description: cell-based or functional assay. This is another data set of the same source.
Assay [7] has as its target T4, purified biotin-tagged human CD36. Description: AlphaScreen competition; competitor 1G04 on acceptor beads.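 Also: streptavidin donor beads excited at 680 nm release singlet oxygen, and the light signal needs a nearby acceptor bead, with 30 min donor-bead incubation at 25 °C in the dark.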
Description: This was done using the AlphaScreen® bead-based microplate assay. […] AlphaLISA® Streptavidin Donor Beads were then added and the mix incubated for 30 min at 25° C. in the dark. The donor bead contains a photosensitizer, which upon excitation by light at 680 nm, converts oxygen (O₂) into an excited form, singlet oxygen. Singlet oxygen molecules have a reduced lifetime (4 microseconds half-life) and can diffuse approximately 200 nm in solution before falling back to ground state. In the absence of acceptor beads, the singlet oxygen molecules fall back to ground state without producing any light signal.
Assay [8] concerns the target T1, human CD36 (on HEK 293 or SCC25 cells). The assay is described as follows: FACS, HEK 293 cells transiently overexpressing human CD36.
Description: After incubation with the cells, an anti-human fluorescently labelled antibody was added to the cell media, allowed to incubate further, and the unbound antibody was washed off of the cells. Subsequently, the cells were subjected to FACS analysis to determine antibody binding to the cells. The results were fitted to a sigmoidal titration curve. Using a nonlinear regression model, the EC₅₀ values for each antibody were calculated from the GeoMFI and MFI values using the log(agonist) versus response (four parameters) fitting on the data transformed according to X=Log[X] in GraphPad PRISM.
After transiently transfecting the HEK 293 cells with a CD36 expression construct, cells were treated with three-fold serial dilution of each candidate antibody (10 dilutions starting at 500 nM). […] Antibody binding to cells was measured by FACS as above.
The next assay addresses T5, human CD36 (His-tagged) (human, UniProt P16671 30-439).
T5 construct: not shown: His tag
Description: SPR (Biacore T200), His-captured CD36, bivalent analyte model.

The target in assay [9] is T1, human CD36 (on HEK 293 or SCC25 cells). Description: cell-based or functional assay. This is another data set of the same source.
The target is the same in assay [10]. Description: FACS, SCC25 cells stably overexpressing human CD36.
Description: as §1

Substitutions are numbered along the chain they refer to. Numbers in names are those of the source.

T2 sequence (Q08857 whole entry): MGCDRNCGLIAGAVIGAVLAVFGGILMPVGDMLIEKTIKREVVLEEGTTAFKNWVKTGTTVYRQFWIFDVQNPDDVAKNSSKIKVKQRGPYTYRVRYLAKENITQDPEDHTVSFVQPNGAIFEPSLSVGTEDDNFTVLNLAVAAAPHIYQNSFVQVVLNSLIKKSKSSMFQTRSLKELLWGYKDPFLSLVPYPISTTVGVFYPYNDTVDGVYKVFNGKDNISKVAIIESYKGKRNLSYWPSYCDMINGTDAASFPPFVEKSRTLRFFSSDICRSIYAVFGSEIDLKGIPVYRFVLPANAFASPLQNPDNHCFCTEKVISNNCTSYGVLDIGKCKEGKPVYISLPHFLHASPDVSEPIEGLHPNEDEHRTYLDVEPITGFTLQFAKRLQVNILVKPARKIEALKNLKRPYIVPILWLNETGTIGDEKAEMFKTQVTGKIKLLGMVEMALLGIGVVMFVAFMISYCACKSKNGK
T1 sequence (P16671 2-472 limits assumed): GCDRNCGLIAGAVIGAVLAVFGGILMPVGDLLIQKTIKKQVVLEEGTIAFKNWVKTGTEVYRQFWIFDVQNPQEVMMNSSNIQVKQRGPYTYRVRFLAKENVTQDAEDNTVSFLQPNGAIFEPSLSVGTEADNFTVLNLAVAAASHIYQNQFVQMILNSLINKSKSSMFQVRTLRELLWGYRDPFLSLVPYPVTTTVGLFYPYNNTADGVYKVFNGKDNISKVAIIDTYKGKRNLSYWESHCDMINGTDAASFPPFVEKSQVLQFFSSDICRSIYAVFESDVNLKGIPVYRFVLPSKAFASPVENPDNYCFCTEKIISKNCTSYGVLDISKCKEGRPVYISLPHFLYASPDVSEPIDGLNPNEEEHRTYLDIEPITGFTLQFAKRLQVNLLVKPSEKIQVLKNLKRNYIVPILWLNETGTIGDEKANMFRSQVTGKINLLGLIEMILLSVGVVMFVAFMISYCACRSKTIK
T5 sequence (P16671 30-439 limits assumed): as the sequence (P16671 30-439 limits assumed) above
Description for human CD36 (His-tagged): The binding affinity of the reported antibodies for human CD36 was also measured by surface plasmon resonance (SPR) using a Biacore T200. […] For each single-cycle experiment, human CD36 (His-tagged) was captured at low density (approximately 40 RU) and a titration of five antibody concentrations (diluted in running buffer) were injected over the captured antigen and then the dissociation of the complex was measured. A double referencing method was employed in which data from the reference surfaces where no antigen was captured (fc 1) were subtracted from the antigen bound capture surface (fc 2). Blank injections of buffer were run for every antibody titration cycle and then subtracted from analyte injection cycles, to correct for small changes in the capture surface density. Surface regeneration between cycles was performed by injecting Glycine pH 1.5 for 60 s. All analysis was performed at 20° C. in HBS-P running buffer (flow 30 μL/min), and the sample rack was kept at 6° C. during experimental runs. Data was fitted to a bivalent analyte model from which the kinetic and thermodynamic binding constants were derived.

B1: 33G04 (antibody, human IgG1, V domains shown)
VH: AVTLDESGGGLQTPGGALSLVCKASGFDFSSYAMGWVRQAPGKGLEWVAGKAKDGGGTAYGSAVKGRATISRDNGQSTVRLQLSNLRAEDTGVYYCAKSAYGDWFYGSSGPYADSIDAWGHGTEVIVSS
VL: ALTQPSSVSASPGETVKITCSGSSDSWYGWYQQKSPGSALVTVIYDSTNRPSSIPSRFSGSTSGSTGTLTITGVRADDEAVYFCGSFDSSTDSTAFGAGTTLTVL
notes: Chimeric: chicken variable regions on human IgG1 LALA (L234A/L235A); also called 033G04
Take B1: the concentration for a half-maximal effect (EC50) in assay [1] stood at 310 pM; in assay [2] it was 4330 pM; in [3] it was 520 pM; in assay [5] it was 3680 pM; in assay [7] it was 1580 pM. The “IC50 of fatty acid uptake inhibition (BODIPY FL C16, HEK hCD36 cells)” value (“IC50 of fatty acid uptake inhibition” for short) in assay [4] is 100 pM. In [6], the “IC50 of oxLDL uptake inhibition (DiI-oxLDL, SCC25 cells)” value (shortened to “IC50 of oxLDL uptake inhibition”) came out at 280 pM.

B2: 34G04 (antibody, human IgG1, V domains shown)
VH: B1 VH
VL: ALTQPSSVSANPGETVKITCSGGDNYAGSYYYGWYQQKSPGSAPVTVIYDDTNRPADIPSRFSGSTSGSTNTLTITGVRAEDEAVYFCGGWDSINDRNIFGAGTTLTVL
notes: Chimeric: chicken variable regions on human IgG1 LALA (L234A/L235A); also called 034G04
With B2, the EC50 is 560 pM in assay [1]; 6750 pM in assay [2]; 1400 pM in assay [3]; 4820 pM in assay [5]; 2470 pM in [7]. The “IC50 of fatty acid uptake inhibition” value in [4] came to 200 pM. Also, in [6], the “IC50 of oxLDL uptake inhibition” value came to 1060 pM.

B3: 73G06 (antibody, human IgG1, kappa)
heavy: EVQLVQSGAEVKKPGSSVKVSCKASGYRFSDYEMQWVRQAPGQGLEWMGGIDPETGGIAYAQKFQGRVTLTADKSTSTAYMELSSLRSEDTAVYYCTRKLDFDYWGQGTLVTVSSASTKGPSVFPLAPSSKSTSGGTAALGCLVKDYFPEPVTVSWNSGALTSGVHTFPAVLQSSGLYSLSSVVTVPSSSLGTQTYICNVNHKPSNTKVDKKVEPKSCDKTHTCPPCPAPESTRGPSVFLFPPKPKDTLYITREPEVTCVVVDVSHEDPEVKFNWYVDGVEVHNAKTKPREEQYNSTYRVVSVLTVLHQDWLNGKEYKCKVSNKALPAPIEKTISKAKGQPREPQVYTLPPSRDELTKNQVSLTCLVKGFYPSDIAVEWESNGQPENNYKTTPPVLDSDGSFFLYSKLTVDKSRWQQGNVFSCSVMHEALHNHYTQKSLSLSPGK
light: ETTVTQSPAFMSATTGDKVTISCITSTDIDDDMNWYQQKPGEPPKLLISEGNTLRPGVPSRFSSSGYGTDFTFTINNIESEDAAYYYCLQSDNLPLTFGQGTKLEIKRTVAAPSVFIFPPSDEQLKSGTASVVCLLNNFYPREAKVQWKVDNALQSGNSQESVTEQDSKDSTYSLSSTLTLSKADYEKHKVYACEVTHQGLSSPVTKSFNRGEC
notes: Humanized 11G04, human IgG1 STR
The molecule B3 returned an EC50 in assay [8] of 870 pM.

B4: 80G06 (antibody, human IgG1, kappa)
heavy: B3 heavy with E1Q
light: B3 light with T15P, N52S
notes: as for B3
Take B4: in [8], the midpoint of the response, the EC50, lay at 650 pM.

B5: 77G06 (antibody, human IgG1, kappa)
heavy: B3 heavy
light: B3 light with N52S
notes: as for B3
Consider B5, for which, in assay [8], a half-maximal effect (EC50) was put at 810 pM.

B6: 76G06 (antibody, human IgG1, kappa)
heavy: B3 heavy with E1Q
light: B3 light with T15P
notes: as for B3
In turn, B6 registered an EC50 in assay [8] of 880 pM.

B7: 74G06 (antibody, human IgG1, kappa)
heavy: B3 heavy with E1Q
light: B3 light
notes: as for B3
Turning to B7, it took 1100 pM to reach a half-maximal effect in assay [8] (EC50).

B8: 79G06 (antibody, human IgG1, kappa)
heavy: B3 heavy
light: B3 light with T15P, N52S
notes: as for B3
In the case of B8, in [8], the response was half-maximal at 650 pM (EC50).

B9: 78G06 (antibody, human IgG1, kappa)
heavy: B3 heavy with E1Q
light: B3 light with N52S
notes: as for B3
B9 returned an EC50 in [8] of 1150 pM.

B10: 75G06 (antibody, human IgG1, kappa)
heavy: B3 heavy
light: B3 light with T15P
notes: as for B3
In [8], B10 yielded an EC50 of 980 pM.

B11: 7G04 (antibody, human IgG1, V domains shown)
VH: QVQMKESGAELVRPGASVKLSCKALGYTFTDYEIQWVKQTPVHGLEWIGGIHPGSSGIVYNQKFKGKATLTADKSSSTAYMELSSLTSEDSAVYYCTRGGGYDGAWFAYWGQGSLVTVSA
VL: ETTVTQSPASLSMAIGEKVTIRCITSTDIDDDMNWYQQKPGEPPKLLISEGNTLRPGVPSRFSSSGYGTDFVFTIENMLSEDVADYYCLQSDNLPFTFGSGTKLEIK
notes: Chimeric: mouse variable regions on human IgG1 LALA (L234A/L235A); also called 07G04; 007G04
Turning to B11, the Kd with human CD36 (His-tagged) was 4900 pM. Besides, the koff with human CD36 (His-tagged) came out at 0.0035 s⁻¹. In the assay with human CD36 (His-tagged), this molecule displayed a kon of 710000 M⁻¹ s⁻¹. In addition, the concentration for a half-maximal effect (EC50) in [1] amounted to 480 pM; in assay [2], 3730 pM; in [3], 4160 pM; in assay [10] it was 680 pM; in [7], 950 pM. Also, in [4], the “IC50 of fatty acid uptake inhibition” value was 1000 pM. Further, the “Percent Fatty Acid Uptake Inhibition” value in assay [9] was determined as 37.4%. Also, the “IC50 of oxLDL uptake inhibition” value in assay [6] amounted to 270 pM.

B12: 28G04 (antibody, human IgG1, V domains shown)
VH: EVQLQQSGPELVKPGASVKISCKTSGYTFTEYTIHWVKQSHGKSLEWIGGIIPNNGGSSHKQNFKDKATLTVDKSSSTAYMELRSLTSEDSAVYYCARAGDYAFDYWGQGTTLTVSS
VL: B11 VL with D92G, N93T
notes: Chimeric: mouse variable regions on human IgG1 LALA (L234A/L235A); also called 028G04
Consider B12, for which the Kd with human CD36 (His-tagged) was determined as 14000 pM. In the assay with human CD36 (His-tagged), the koff came out at 0.013 s⁻¹. Further, in the assay with human CD36 (His-tagged), the kon was 870000 M⁻¹ s⁻¹. Also, the concentration for a half-maximal effect (EC50) in [1] came to 600 pM; in assay [2], 8500 pM; in assay [3], 7770 pM; in [10], 950 pM; in assay [7], 4690 pM. The “IC50 of fatty acid uptake inhibition” value in assay [4] came out at 90 pM. For the same molecule, the “Percent Fatty Acid Uptake Inhibition” value in assay [9] turned out to be 39.7%. In addition, the “IC50 of oxLDL uptake inhibition” value in [6] is 1670 pM.

B13: 11G04 (antibody, human IgG1, V domains shown)
VH: EVQLQQSGAELVRPGASVTLSCKASGYRFSDYEMQWVKQTPVHGLEWIGGIDPETGGIAYNQKFKVKATLTADKSSSTAFMELRSLTSEDSAVYYCTRKLDFDYWGQGTTLTVSS
VL: B11 VL with M13V, I15T, F96L, S100A, I106L
notes: Chimeric: mouse variable regions on human IgG1 LALA (L234A/L235A); also called 011G04
Regarding B13, the EC50 in assay [8] came out at 490 pM; in [1] it was 450 pM; in assay [2] it was 11200 pM; in assay [3], 8930 pM; in [10], 460 pM. For the same molecule, in the assay with human CD36 (His-tagged), the Kd stood at 19000 pM. Besides, the koff with human CD36 (His-tagged) worked out at 0.022 s⁻¹. In the assay with human CD36 (His-tagged), this molecule yielded a kon of 1.2e+06 M⁻¹ s⁻¹. In addition, the “IC50 of fatty acid uptake inhibition” value in assay [4] came out at 70 pM. In [9], the “Percent Fatty Acid Uptake Inhibition” value turned out to be 41.6%. In addition, in [6], the “IC50 of oxLDL uptake inhibition” value worked out at 1170 pM.

B14: 11G06 (antibody, human IgG1, V domains shown)
VH: B13 VH
VL: B11 VL with M13V, I15T, F96L, S100A, I106L
B14 returned an EC50 in [8] of 760 pM.

B15: 36G04 (antibody, human IgG1, V domains shown)
VH: AVTLDESGGGLQTPGGALSLVCKASGFIFSSYGMGWVRQAPGKGLEYIAAISNDGSKADYGAAVKGRATISRDNGQSTVRLQLNNLRAEDTATYYCAKSADTGYCSWSACIADSIDAWGHGTEVIVSS
VL: ALTQPSSVSAIPGETVKITCSGGGSDYGWYQQKSPGSAPVTVIYWSDNRPSNIPSRFSGSESGSTATLTITGVRAEDEAVYFCGGYDSSGSGMFGAGTTLTVL
notes: Chimeric: chicken variable regions on human IgG1 LALA (L234A/L235A); also called 036G04
With B15, the EC50 was 330 pM in assay [1]; 660 pM in assay [2]; 290 pM in assay [3]; 1040 pM in assay [5]; 570 pM in assay [7]. The “IC50 of fatty acid uptake inhibition” value in assay [4] was determined as 810 pM. The “IC50 of oxLDL uptake inhibition” value in assay [6] is 90 pM.

B16: 35G04 (antibody, human IgG1, V domains shown)
VH: AVTLDESGGGLQTPGGALSLVCKASGFTFSNYGMGWMRQAPGKGLEFVAKIYKDGGYTGYGAAVDGRATISRDDGQSTVRLQLNDLRAEDTATYFCAKAADSGYLYITDSIDAWGHGTEVIVSS
VL: ALTQPSSVSANPGETVKITCSGGSGSYGWFQQKSPGNAPVTVIYHNDQRPSDIPSRFSGSKSGSTATLTITEVQADDEAVYVCGGYDNDNDAGIFGAGTTLTVL
notes: Chimeric: chicken variable regions on human IgG1 LALA (L234A/L235A); also called 035G04
Consider B16, for which the EC50 was determined as 630 pM in assay [1]; 2250 pM in assay [2]; 590 pM in assay [3]; 1350 pM in assay [5]; 660 pM in assay [7]. Further, the “IC50 of fatty acid uptake inhibition” value in [4] worked out at 40 pM. Moreover, the “IC50 of oxLDL uptake inhibition” value in [6] worked out at 110 pM.

One may read the EC50 as the concentration giving half of the maximal effect. Broadly, the koff is a measure of how fast the partners let go of each other. By kon is commonly meant the second-order rate constant of association.

The record behind these values is patent publication US20250206836A1 (ONA THERAPEUTICS S L, published 2025).
